Columns and labels:
[1] = target: T1, human integrin αvβ6 (soluble, construct not stated) (human, UniProt P06756 31-1048; P18564 22-709); experiment: BLI
T1 chain 1: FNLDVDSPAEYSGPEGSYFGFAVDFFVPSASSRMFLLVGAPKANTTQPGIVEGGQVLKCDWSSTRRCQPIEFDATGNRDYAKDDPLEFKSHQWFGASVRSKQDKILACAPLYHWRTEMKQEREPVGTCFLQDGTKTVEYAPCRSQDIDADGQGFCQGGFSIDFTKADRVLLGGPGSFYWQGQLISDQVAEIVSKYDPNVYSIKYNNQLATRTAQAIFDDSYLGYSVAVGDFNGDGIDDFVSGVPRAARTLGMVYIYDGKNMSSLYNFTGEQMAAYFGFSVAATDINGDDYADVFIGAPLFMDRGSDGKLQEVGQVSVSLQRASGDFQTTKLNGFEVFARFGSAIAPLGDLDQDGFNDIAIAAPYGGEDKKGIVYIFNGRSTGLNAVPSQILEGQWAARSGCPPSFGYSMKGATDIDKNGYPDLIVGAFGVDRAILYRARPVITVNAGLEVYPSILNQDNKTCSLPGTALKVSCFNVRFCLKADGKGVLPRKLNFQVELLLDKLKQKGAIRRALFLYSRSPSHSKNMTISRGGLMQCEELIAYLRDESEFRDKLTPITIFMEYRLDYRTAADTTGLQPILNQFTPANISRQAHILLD
T1 chain 2: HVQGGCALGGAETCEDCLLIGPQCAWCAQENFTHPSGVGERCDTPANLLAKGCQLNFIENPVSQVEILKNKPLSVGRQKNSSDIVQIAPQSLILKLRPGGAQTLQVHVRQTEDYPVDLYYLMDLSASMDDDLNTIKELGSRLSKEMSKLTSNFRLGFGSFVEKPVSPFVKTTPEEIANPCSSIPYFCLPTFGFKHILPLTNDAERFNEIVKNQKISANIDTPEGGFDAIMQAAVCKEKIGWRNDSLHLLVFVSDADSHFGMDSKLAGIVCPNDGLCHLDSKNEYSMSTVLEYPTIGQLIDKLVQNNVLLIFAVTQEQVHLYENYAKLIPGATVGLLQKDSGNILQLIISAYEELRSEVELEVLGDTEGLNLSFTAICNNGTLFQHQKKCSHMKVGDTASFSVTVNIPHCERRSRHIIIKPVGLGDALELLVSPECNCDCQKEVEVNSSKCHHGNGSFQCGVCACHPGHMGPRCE

[2] = target: recombinant human integrin αvβ6 headpiece (Expi293F) (human, UniProt P06756 31-429; P18564 130-371, I287C); experiment: ELISA; competition with hLAP1
αvβ5 = target: T2, αvβ5 (Homo sapiens); experiment: BLI
T2 chain 1: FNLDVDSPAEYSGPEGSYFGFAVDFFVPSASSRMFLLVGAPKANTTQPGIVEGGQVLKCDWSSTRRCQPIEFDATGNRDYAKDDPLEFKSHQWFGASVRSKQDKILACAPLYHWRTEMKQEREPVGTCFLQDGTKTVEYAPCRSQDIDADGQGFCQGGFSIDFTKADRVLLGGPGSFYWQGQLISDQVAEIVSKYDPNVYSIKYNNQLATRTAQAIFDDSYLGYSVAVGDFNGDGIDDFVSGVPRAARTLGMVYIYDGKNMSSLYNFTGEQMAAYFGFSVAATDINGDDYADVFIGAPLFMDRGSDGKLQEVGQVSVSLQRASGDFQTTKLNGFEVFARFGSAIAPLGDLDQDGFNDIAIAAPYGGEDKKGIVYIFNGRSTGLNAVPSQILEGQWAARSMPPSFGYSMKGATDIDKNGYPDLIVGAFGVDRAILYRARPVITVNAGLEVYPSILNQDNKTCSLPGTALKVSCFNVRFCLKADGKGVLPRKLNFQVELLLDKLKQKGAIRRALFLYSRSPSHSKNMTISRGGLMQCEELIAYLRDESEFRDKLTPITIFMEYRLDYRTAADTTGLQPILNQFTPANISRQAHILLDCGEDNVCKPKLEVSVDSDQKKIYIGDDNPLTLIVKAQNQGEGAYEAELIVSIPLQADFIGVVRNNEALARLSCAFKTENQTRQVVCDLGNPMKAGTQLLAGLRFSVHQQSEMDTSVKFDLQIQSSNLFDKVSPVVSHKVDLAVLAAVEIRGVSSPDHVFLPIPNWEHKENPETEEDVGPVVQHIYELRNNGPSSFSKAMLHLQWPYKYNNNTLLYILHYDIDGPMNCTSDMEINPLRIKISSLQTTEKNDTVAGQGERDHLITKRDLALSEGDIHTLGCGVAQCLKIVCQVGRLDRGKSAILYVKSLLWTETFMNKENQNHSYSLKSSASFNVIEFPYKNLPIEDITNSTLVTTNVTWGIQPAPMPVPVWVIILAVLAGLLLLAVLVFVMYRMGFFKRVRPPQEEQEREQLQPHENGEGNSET
T2 chain 2: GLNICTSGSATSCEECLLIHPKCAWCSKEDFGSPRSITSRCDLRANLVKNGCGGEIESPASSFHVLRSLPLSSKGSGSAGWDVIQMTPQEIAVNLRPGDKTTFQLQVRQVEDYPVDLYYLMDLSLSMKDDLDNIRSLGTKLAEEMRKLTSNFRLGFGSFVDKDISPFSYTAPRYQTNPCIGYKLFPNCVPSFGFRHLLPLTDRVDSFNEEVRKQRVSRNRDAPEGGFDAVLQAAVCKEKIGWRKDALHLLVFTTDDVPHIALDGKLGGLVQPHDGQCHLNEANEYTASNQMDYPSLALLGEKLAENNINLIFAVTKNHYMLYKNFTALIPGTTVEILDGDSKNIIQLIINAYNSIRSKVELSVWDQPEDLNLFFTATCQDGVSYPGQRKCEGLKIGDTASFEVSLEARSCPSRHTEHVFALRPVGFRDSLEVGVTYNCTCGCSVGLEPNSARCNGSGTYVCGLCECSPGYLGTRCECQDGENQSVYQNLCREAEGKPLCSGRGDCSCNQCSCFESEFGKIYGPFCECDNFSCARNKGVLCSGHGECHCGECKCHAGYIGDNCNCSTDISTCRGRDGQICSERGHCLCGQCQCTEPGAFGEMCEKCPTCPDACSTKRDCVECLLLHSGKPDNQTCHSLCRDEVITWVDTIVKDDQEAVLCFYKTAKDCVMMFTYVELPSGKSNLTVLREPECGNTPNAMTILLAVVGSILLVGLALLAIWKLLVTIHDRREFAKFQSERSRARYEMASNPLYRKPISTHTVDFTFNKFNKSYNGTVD

αIIbβ3 = αIIbβ3 (Homo sapiens); experiment: BLI
αvβ3 = target: T3, αvβ3 (Homo sapiens); experiment: BLI
T3 chain 1: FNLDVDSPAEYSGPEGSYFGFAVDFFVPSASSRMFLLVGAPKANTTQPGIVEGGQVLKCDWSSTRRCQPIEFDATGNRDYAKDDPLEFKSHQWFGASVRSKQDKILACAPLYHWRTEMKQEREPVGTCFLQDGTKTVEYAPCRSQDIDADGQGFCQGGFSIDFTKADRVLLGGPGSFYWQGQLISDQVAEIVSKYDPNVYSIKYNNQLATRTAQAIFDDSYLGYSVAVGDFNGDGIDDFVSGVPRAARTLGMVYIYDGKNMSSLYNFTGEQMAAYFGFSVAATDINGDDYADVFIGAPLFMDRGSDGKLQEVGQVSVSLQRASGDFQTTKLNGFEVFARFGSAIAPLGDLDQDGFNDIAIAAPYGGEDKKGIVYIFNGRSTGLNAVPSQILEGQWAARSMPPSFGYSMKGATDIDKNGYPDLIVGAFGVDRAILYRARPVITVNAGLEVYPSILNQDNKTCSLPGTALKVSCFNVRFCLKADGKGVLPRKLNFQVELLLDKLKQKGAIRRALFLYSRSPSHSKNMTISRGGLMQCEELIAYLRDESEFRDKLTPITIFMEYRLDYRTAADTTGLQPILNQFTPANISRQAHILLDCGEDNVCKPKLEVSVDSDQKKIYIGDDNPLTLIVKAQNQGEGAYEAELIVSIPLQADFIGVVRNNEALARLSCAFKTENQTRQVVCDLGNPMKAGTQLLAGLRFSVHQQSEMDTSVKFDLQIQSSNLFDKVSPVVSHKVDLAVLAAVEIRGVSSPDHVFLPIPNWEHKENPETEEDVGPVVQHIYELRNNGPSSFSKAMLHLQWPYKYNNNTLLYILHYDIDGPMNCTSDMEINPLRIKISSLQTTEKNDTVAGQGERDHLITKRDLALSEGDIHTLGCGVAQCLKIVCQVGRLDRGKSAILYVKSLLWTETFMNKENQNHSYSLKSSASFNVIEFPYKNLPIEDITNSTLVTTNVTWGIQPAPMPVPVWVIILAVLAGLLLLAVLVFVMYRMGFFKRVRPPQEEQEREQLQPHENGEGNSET
T3 chain 2: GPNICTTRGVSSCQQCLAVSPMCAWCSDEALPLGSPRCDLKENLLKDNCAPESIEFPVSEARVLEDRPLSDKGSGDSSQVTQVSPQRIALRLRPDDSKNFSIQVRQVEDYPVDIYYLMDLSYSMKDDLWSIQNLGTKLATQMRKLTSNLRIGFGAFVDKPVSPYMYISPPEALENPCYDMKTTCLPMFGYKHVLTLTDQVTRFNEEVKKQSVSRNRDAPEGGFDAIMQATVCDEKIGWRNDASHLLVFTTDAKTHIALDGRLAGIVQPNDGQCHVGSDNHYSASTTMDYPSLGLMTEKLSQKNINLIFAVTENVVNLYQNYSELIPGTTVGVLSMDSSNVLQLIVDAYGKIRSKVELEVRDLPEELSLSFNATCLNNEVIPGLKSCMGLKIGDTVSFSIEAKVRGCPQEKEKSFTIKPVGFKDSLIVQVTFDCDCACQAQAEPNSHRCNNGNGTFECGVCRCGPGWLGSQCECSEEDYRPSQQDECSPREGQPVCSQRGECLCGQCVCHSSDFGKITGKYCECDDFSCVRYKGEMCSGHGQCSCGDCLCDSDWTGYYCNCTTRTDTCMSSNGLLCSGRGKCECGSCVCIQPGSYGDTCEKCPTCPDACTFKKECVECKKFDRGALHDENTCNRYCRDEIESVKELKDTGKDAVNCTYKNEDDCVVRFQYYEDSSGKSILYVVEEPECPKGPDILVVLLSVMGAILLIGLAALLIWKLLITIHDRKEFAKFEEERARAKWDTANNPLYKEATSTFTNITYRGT

α5β1 = α5β1 (Homo sapiens); experiment: BLI
Chain of α5β1 (Homo sapiens) (chain, as listed by the source, chain 1 of 2): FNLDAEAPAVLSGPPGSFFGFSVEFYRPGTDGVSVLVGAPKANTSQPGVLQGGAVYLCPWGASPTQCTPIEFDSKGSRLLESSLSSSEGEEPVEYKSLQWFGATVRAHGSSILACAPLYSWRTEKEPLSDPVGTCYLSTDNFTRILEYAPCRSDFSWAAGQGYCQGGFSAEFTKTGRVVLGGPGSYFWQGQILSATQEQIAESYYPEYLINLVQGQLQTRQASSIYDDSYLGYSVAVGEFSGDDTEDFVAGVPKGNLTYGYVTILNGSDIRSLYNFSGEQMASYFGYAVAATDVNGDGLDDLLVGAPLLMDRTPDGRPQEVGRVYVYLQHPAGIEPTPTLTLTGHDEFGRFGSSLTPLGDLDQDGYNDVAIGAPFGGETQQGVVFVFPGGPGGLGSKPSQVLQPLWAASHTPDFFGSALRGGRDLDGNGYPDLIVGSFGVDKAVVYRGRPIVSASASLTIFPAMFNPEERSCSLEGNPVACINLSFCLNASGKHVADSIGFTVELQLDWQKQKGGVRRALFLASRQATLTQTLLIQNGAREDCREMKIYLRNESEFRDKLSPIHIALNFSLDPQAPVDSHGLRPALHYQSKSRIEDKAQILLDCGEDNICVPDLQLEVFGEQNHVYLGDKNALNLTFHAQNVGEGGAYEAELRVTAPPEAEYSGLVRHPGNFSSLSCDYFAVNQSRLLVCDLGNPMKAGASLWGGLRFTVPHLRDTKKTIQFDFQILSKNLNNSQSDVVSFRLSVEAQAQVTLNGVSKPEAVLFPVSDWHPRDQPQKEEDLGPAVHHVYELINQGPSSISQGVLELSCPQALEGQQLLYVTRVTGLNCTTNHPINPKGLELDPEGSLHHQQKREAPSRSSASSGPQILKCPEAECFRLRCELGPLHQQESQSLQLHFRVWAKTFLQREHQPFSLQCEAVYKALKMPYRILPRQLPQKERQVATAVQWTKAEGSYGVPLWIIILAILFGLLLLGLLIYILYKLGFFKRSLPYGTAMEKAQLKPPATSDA
Chain of α5β1 (Homo sapiens) (chain, as listed by the source, chain 2 of 2): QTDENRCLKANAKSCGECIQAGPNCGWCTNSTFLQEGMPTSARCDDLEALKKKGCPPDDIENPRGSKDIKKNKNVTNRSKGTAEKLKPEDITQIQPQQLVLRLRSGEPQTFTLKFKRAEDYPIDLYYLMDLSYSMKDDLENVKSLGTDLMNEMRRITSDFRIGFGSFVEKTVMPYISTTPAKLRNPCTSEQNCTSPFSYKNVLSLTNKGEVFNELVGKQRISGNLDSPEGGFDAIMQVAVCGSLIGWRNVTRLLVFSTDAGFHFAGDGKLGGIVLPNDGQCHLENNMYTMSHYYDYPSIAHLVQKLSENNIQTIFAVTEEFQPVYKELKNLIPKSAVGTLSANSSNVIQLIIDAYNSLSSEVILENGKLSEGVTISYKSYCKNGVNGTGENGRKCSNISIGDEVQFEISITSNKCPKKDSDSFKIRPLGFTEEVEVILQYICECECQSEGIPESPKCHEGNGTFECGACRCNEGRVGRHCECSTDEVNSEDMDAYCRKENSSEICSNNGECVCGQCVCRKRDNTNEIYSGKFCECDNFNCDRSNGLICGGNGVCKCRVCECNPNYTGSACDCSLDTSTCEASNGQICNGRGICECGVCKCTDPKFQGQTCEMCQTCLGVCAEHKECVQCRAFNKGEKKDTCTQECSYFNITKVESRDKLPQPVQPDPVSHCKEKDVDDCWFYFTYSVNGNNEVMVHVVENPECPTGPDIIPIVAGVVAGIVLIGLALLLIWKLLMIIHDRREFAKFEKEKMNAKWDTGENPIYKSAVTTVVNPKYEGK

αvβ1 = αvβ1 (Homo sapiens); experiment: BLI
Chain of αvβ1 (Homo sapiens) (chain, as listed by the source, chain 2 of 2, one chain of several): as the sequence (chain, as listed by the source, chain 2 of 2) above

α8β1 = α8β1 (Homo sapiens); experiment: BLI
Chain of α8β1 (Homo sapiens) (chain, as listed by the source, chain 1 of 2): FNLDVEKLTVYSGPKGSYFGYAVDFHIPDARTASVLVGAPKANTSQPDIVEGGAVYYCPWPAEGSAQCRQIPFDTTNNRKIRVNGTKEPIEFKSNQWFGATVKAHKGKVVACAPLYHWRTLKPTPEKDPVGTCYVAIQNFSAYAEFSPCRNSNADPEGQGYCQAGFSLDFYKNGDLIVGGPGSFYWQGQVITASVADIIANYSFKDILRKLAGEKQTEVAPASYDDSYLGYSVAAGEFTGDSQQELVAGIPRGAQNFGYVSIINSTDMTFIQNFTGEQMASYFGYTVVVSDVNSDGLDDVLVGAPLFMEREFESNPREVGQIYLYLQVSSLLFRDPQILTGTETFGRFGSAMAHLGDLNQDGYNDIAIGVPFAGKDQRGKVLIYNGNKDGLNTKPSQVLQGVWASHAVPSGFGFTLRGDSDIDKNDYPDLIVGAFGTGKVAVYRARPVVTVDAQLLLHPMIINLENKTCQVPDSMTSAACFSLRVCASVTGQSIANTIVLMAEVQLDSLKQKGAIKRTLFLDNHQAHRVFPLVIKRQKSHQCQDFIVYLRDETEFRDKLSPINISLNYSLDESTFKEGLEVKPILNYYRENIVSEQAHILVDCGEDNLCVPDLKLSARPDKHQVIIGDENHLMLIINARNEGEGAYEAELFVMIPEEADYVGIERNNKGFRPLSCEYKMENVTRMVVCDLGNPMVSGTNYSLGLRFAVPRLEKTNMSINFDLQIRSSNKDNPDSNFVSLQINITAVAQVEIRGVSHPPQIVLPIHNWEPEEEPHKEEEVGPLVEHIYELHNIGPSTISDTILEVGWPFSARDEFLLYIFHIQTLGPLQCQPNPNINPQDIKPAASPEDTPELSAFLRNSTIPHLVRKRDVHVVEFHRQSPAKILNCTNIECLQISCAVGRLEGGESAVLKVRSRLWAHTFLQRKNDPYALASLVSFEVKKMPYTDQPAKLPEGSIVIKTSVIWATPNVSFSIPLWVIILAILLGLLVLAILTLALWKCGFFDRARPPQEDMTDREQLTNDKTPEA
Chain of α8β1 (Homo sapiens) (chain, as listed by the source, chain 2 of 2): as the sequence (chain, as listed by the source, chain 2 of 2) above

[3] = target: T4, human integrin αvβ8 (soluble, construct not stated) (human, UniProt P06756 31-1048; P26012 43-684); experiment: BLI
T4 chain 1: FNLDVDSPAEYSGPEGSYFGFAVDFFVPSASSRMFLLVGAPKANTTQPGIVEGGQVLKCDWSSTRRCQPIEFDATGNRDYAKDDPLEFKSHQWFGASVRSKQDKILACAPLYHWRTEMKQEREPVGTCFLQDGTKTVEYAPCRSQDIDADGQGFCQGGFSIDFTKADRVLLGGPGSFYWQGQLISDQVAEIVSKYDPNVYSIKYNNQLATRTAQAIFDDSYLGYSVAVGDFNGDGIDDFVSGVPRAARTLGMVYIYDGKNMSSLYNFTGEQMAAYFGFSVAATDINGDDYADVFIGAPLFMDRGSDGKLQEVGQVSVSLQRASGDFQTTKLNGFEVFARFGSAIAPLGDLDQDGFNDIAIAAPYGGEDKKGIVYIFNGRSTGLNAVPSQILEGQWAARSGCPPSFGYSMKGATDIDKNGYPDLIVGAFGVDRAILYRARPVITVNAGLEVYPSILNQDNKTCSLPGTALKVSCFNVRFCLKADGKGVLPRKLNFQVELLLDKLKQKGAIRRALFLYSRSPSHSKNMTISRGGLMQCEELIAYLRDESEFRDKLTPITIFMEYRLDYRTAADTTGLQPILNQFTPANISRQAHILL
T4 chain 2: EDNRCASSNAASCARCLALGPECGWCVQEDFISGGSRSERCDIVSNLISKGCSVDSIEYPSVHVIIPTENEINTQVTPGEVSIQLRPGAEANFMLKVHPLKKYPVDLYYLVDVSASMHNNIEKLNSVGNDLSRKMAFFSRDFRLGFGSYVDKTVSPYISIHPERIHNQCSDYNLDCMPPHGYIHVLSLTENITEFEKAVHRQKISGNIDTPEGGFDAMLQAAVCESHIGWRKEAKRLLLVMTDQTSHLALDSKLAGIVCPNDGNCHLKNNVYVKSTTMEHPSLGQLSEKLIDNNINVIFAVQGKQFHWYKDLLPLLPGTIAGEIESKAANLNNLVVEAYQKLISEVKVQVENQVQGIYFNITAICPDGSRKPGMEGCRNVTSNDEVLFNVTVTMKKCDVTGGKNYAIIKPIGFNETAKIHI

[4] = target: recombinant human integrin αvβ8 headpiece (Expi293F) (human, UniProt P06756); experiment: ELISA; competition with hLAP1
Chain of recombinant human integrin αvβ8 headpiece (Expi293F) (P06756 whole entry, looked up): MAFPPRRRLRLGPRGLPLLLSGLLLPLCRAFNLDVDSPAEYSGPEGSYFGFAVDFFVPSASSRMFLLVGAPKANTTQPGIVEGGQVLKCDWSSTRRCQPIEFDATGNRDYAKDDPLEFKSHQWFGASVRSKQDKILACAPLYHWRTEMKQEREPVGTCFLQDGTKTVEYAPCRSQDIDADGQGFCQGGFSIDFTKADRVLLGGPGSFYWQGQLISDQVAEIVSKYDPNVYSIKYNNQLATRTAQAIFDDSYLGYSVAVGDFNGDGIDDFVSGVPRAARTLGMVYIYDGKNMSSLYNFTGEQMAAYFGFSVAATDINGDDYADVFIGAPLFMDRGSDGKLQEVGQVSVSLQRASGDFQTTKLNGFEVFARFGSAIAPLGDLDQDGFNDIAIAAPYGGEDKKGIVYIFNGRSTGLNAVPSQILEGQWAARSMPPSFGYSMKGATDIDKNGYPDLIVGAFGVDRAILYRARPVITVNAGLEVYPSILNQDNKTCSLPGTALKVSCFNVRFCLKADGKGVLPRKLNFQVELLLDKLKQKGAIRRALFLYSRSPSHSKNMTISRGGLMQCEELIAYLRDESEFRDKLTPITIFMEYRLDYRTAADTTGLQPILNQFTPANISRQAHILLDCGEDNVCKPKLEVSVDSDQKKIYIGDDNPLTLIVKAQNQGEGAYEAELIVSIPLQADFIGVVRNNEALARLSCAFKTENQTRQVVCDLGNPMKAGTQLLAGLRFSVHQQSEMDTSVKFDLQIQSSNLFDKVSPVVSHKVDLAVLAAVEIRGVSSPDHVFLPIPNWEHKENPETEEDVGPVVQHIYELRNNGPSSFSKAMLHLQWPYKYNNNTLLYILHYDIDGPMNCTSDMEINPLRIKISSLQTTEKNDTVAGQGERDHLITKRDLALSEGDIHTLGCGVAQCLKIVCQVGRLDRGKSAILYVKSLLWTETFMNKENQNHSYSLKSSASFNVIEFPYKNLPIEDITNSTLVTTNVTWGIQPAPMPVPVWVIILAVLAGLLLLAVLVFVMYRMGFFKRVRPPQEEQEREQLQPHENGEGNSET

B1: MAVI (protein)
chain: TKCVVRFNFRGDMAVIALKAVKDHLKKEGPHWNITTHNDDEVYLVVRGIHESDAKRIAKWVESTIPGISVETQCD
modifications: N/C-terminal disulfide staple (Cys3-Cys74); B8_BP_dslf with MAVY motif changed to MAVI
Kd [1]: 1.2 nM

B2: B8_BP-LATY (designed binder)
chain: TKCVVRFNFRGDLATYALKAVKDHLKKEGPHWNITTHNDDEVYLVVRGIHESDAKRIAKWVESTIPGISVETQCD
Kd [1]: > 500 nM

B3: B8_BP_dslf (designed binder)
chain: TKCVVRFNFRGDMAVYALKAVKDHLKKEGPHWNITTHNDDEVYLVVRGIHESDAKRIAKWVESTIPGISVETQCD
Kd [1]: > 1000 nM | IC50 [2]: > 500 nM

B4: MATI (protein)
chain: TKCVVRFNFRGDMATIALKAVKDHLKKEGPHWNITTHNDDEVYLVVRGIHESDAKRIAKWVESTIPGISVETQCD
modifications: N/C-terminal disulfide staple (Cys3-Cys74); B8_BP_dslf with MAVY motif changed to MATI
Kd [1]: 1.2 nM

B5: B8_BP-LATY (designed binder)
chain: TKCVVRFNFRGDLATYALKAVKDHLKKEGPHWNITTHNDDEVYLVVRGIHESDAKRIAKWVESTIPGISVETQCD
modifications: full-length mature chains taken as on K562 cells; soluble ectodomain possible for BLI; divalent cations, glycosylated
Kd (αvβ5): > 1000 nM | Kd (αIIbβ3): > 1000 nM | Kd (αvβ3): > 1000 nM | Kd (α5β1): > 1000 nM | Kd (αvβ1): > 1000 nM | Kd (α8β1): > 1000 nM

B6: B6_BP_dslf (designed binder)
chain: TKCVVRFVFRGDLAELMLRAVKDHLKKEGPHWNITSTNNGKELVVRGIHESDAKRIAKWVEKRFPRVHTETQCD
modifications: full-length mature chains taken as on K562 cells; soluble ectodomain possible for BLI; divalent cations, glycosylated
Kd (αvβ5): > 200 nM | Kd (αIIbβ3): > 200 nM | Kd (αvβ3): > 200 nM | Kd (α5β1): > 200 nM | Kd (αvβ1): > 200 nM | Kd (α8β1): > 200 nM

B7: B6_BP_dslf (designed binder)
chain: TKCVVRFVFRGDLAELMLRAVKDHLKKEGPHWNITSTNNGKELVVRGIHESDAKRIAKWVEKRFPRVHTETQCD
Kd [3]: 580 nM | Kd [1]: 0.11 nM | IC50 [4]: ~80 nM

Source: PMC10500007 (2023)
